B1: AVR10s_A330C (receptor)
chain: MGSAGESDQITLPKNEVQLNCYVLQEPPKGETSTYDWQLITHPRDYSGEMEGEHSQILKLSNLTPGLYEFKAVVEGQNAHSEGYVNVTVEPEPRKNRPPIAIVSPQFQEISLPTTSTVIDGSQSTDDDKIVQYHWEELKGPLREEKISEDTAILKLSKLVPGNYTFRLTVVDSDGATDSTTANLTVNKAVDHHHHHH
B2: AVR10s_L333C (receptor)
chain: B1 chain with C21A, L24C
B3: AVR10s_I349N (receptor)
chain: B1 chain with C21A, I40N
B4: AVR10s_A330L (receptor)
chain: B1 chain with C21L
B5: AVR10s_A330Y (receptor)
chain: B1 chain with C21Y
B6: AVR10s_L348C (receptor)
chain: B1 chain with C21A, L39C
B7: AVR10s_A330V (receptor)
chain: B1 chain with C21V
B8: AVR10s_V332W (receptor)
chain: B1 chain with C21A, V23W
B9: AVR10s_Q347S (receptor)
chain: B1 chain with C21A, Q38S
B10: AVR10s_Y331C (receptor)
chain: B1 chain with C21A, Y22C
B11: AVR10s_A330R (receptor)
chain: B1 chain with C21R
B12: AVR10s_V332Y (receptor)
chain: B1 chain with C21A, V23Y
B13: AVR10s_A330W (receptor)
chain: B1 chain with C21W
B14: AVR10s_A330F (receptor)
chain: B1 chain with C21F
B15: AAV-binding protein AVR10s (polypeptide of SEQ ID NO: 4, with polyhistidine tag) (receptor)
chain: B1 chain with C21A

This passage reports Binding activity for AAV5 (vs AVR10s) (ratio (AVR10s = 1)) results from US20250236657A1 (TOSOH, published 2025).

Where a chain is given by its changes, count along the chain named.

In the first test the target is AAV vector (AAV5-EGFP), adeno-associated virus serotype 5 (adeno-associated virus serotype 5 (AAV5)). As to the kind of experiment: ELISA, AAV5-EGFP coated, culture supernatant, anti-6His, A450.
Take B1: the Binding activity for AAV5 (vs AVR10s) (ratio (AVR10s = 1)) was 1.94.
On the same count and under the same terms, then B2, with 1.51; and B3, with 1.13; and B4, with 1.53.
Regarding B5, the Binding activity for AAV5 (vs AVR10s) (ratio (AVR10s = 1)) was 2.19.
Still for that read-out and setting: then B6, with 1.19; and B7, with 1.83.
With B8, the Binding activity for AAV5 (vs AVR10s) (ratio (AVR10s = 1)) was 3.87.
In the case of B9, the Binding activity for AAV5 (vs AVR10s) (ratio (AVR10s = 1)) came to 1.73.
For the molecule B10, the Binding activity for AAV5 (vs AVR10s) (ratio (AVR10s = 1)) was 1.3.
The same measure, in the same setting: the figure for B11 is 1.5.
Same read-out and setting: then B12, with 1.5; and B13, with 1.46; and B14, with 1.68.

A further test has the same target. As to the kind of experiment: ELISA, AAV5-EGFP coated, culture supernatant, anti-6His, A450; the reference itself. (In general: In an ELISA, binding on a coated surface is turned into a signal by an enzyme label.)
Take B15: the Binding activity for AAV5 (vs AVR10s) (ratio (AVR10s = 1)) came to 1.
